Test [1] addresses Ddx4_N1_1 (disordered N-terminus of Ddx4 protein, forming Ddx4N1 membraneless organelles / proteinaceous phase) (Homo sapiens (Human)) (UniProt Q9NQI0). Put plainly: confocal fluorescence microscopy, partitioning inside vs outside Ddx4N1 organelles in vitro; 5 µM, 150 mM NaCl.
For test [2] the target is unchanged. Put plainly: confocal fluorescence microscopy, partitioning inside vs outside Ddx4N1 organelles in vitro; 11.8 µM, 175 mM NaCl.

Sequence of UniProt Q9NQI0 (Q9NQI0 other isoform, or with tags, fused parts or gaps limits assumed): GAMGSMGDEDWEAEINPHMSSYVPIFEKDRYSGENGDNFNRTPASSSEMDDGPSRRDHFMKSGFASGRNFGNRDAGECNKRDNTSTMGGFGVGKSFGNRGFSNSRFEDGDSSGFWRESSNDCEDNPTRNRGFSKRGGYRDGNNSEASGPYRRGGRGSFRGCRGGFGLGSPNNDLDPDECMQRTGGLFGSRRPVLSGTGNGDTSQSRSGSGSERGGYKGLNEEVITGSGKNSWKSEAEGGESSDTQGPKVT

Turning to “GFP^-30 (acidic GFP, -30 surface charge)”, the ΔGpart (partition free energy into Ddx4N1 organelles) in test [1] is 1.6 kJmol^-1. “aB_GFP (alphaB-crystallin fused to GFP, oligomer)” registered a ΔGpart (partition free energy into Ddx4N1 organelles) in test [2] of -7.8 kJmol^-1.
